Experimental data: article PMC2064962, “Inhibition of Protein Aggregation: Supramolecular Assemblies of Arginine Hold the Key” (PLoS ONE, 2007)

Molecular target: the molecule itself
Assay: SEC; SMART Superdex G75 column, 0.02 M sodium phosphate buffer pH 7.4 (PB), with or without 0.2 M arginine; 10 µg peptide in 50 µl, flow 100 µl/min, monitored at 257 nm; self-association, monomer and tetramer seen

B1: Mouse Alzheimer's amyloid beta 1-42 peptide (peptide)
peptide: DAEFGHDSGFEVRHQKLVFFAEDVGSNKGAIIGLMVGGVVIA
notes: Amyloid beta 1-42, the cut product of mouse amyloid precursor protein (APP); numbers count on: the Aβ peptide; it was removed; also called Aβ_(1-42); mouse Aβ_(1-42); source: synthetic peptide (Fmoc chemistry, purified on ProRPC C-18); dissolved in 0.01 M NaOH before use
- stoichiometry N: 4
